Reference: ChEMBL document CHEMBL4602687, “Dual Binding to Orthosteric and Allosteric Sites Enhances the Anticancer Activity of a TRAP1-Targeting Drug” (J Med Chem, 2020)

How the values were obtained:
[1] = compound: CC(C)NCCCn1c(Sc2cc3c(cc2I)OCO3)nc2c(N)ncnc21; test: (§1) Competitive inhibition of recombinant wild-type human TRAP1 ATPase activity expressed in Escherichia coli BL21 (DE3) assessed as ratio of substrate Kcat to Km at 5 uM preincubated for 0.5 hrs followed by varying levels of ATP addition and measured after 3 hrs using PiColorLock Gold reagent by colorimetric assay-based Lineweaver-Burk plot analysis (reference value: 10.3 +/- 0.54 10^-5 /s/uM)
[2] = substrate: Nc1ncnc2c1nc(Sc1cc3c(cc1I)OCO3)n2CCCCCCCCCC[P+](c1ccccc1)(c1ccccc1)c1ccccc1; test: as §1, with “Allosteric modulation” for “Competitive inhibition”, “as” for “as ratio of”, “Kcat” for “Kcat to Km”, “0.87” for “10.3”, “0.01 […])” for “0.54 10^-5 /s/uM)”
[3] = substrate: Nc1ncnc2c1nc(Sc1cc3c(cc1I)OCO3)n2CCCCCCCCCC[P+](c1ccccc1)(c1ccccc1)c1ccccc1; test: as §1, with “Allosteric modulation” for “Competitive inhibition”
[4] = substrate: Nc1ncnc2c1nc(Sc1cc3c(cc1I)OCO3)n2CCCCCCCCCC[P+](c1ccccc1)(c1ccccc1)c1ccccc1; test: as §1, with “Allosteric modulation” for “Competitive inhibition”, “as” for “as ratio of”, “substrate” for “substrate Kcat to”, “84.42” for “10.3”, “3.84 uM)” for “0.54 10^-5 /s/uM)”
[5] = compound: CC(C)NCCCn1c(Sc2cc3c(cc2I)OCO3)nc2c(N)ncnc21; test: as §1, with “as” for “as ratio of”, “substrate” for “substrate Kcat to”, “84.42” for “10.3”, “3.84 uM)” for “0.54 10^-5 /s/uM)”
[6] = compound: CC(C)NCCCn1c(Sc2cc3c(cc2I)OCO3)nc2c(N)ncnc21; test: as §1, with “as” for “as ratio of”, “Kcat” for “Kcat to Km”, “0.87” for “10.3”, “0.01 […])” for “0.54 10^-5 /s/uM)”

B1: Heat shock protein 75 kDa, mitochondrial (Homo sapiens), Q12931 (protein)
chain: MARELRALLLWGRRLRPLLRAPALAAVPGGKPILCPRRTTAQLGPRRNPAWSLQAGRLFSTQTAEDKEEPLHSIISSTESVQGSTSKHEFQAETKKLLDIVARSLYSEKEVFIRELISNASDALEKLRHKLVSDGQALPEMEIHLQTNAEKGTITIQDTGIGMTQEELVSNLGTIARSGSKAFLDALQNQAEASSKIIGQFGVGFYSAFMVADRVEVYSRSAAPGSLGYQWLSDGSGVFEIAEASGVRTGTKIIIHLKSDCKEFSSEARVRDVVTKYSNFVSFPLYLNGRRMNTLQAIWMMDPKDVREWQHEEFYRYVAQAHDKPRYTLHYKTDAPLNIRSIFYVPDMKPSMFDVSRELGSSVALYSRKVLIQTKATDILPKWLRFIRGVVDSEDIPLNLSRELLQESALIRKLRDVLQQRLIKFFIDQSKKDAEKYAKFFEDYGLFMREGIVTATEQEVKEDIAKLLRYESSALPSGQLTSLSEYASRMRAGTRNIYYLCAPNRHLAEHSPYYEAMKKKDTEVLFCFEQFDELTLLHLREFDKKKLISVETDIVVDHYKEEKFEDRSPAAECLSEKETEELMAWMRNVLGSRVTNVKVTLRLDTHPAMVTVLEMGAARHFLRMQQLAKTQEERAQLLQPTLEINPRHALIKKLNQLRASEPGLAQLLVDQIYENAMIAAGLVDDPRAMVGRLNELLVKALERH
Which results are given for B1?
kcat/Km [1]: 0.76 ×10⁻⁵ /s/µM; kcat [2]: 2.51 ×10⁻² /s; kcat/Km [3]: 4.99 ×10⁻⁵ /s/µM; Km [4]: 506 µM; Km [5]: 1050 µM; kcat [6]: 0.8 ×10⁻² /s
